# Test results: PMC5491494, “Functional and dynamic polymerization of the ALS-linked protein TDP-43 antagonizes its pathologic aggregation” (Nature Communications, 2017)
# Molecular target: the molecule itself
# Assay: cross-linking; in situ 1 mM DSG on minced human brain tissue (cerebellum, motor cortex) or mouse organotypic brain slices (control or 0.25 mM arsenite for 2 h), 37 °C, 30 min, quenched with 20 mM Tris; nucleo-cytoplasmic fractionation; immunoblot
protein,measurement,value
"wild-type superoxide dismutase 1 (SOD1), endogenous mouse (enzyme, superoxide dismutase 1, mouse, endogenous in brain slices; source: endogenous, mouse brain slices) not shown",stoichiometry N,2
